Patent publication US20060275780, “Cross-linking reagents and uses thereof” (Beckman Coulter, Inc., published 2006)

B1: bFGF native aptamer (ssDNA)
DNA: GCGAAGGCACACCGAGTTCATAGTATCCCA
B2: bFGF photoaptamer (ssDNA)
DNA: B1 DNA
modifications: BrdU at the five n positions (17, 18, 22, 25, 27), replacing T [n positions 17,18,21,24,26 = modified dU]

How the values were obtained:
[1] = target: T1, FGFb (fibroblast growth factor-basic, bFGF, FGF2) (UniProt P09038 P09038:143-288); assay: printed aptamer array; stated to bind as tightly as the BrdU aptamer; cross-linking avidity lower (curve shifted right) after 1N NaOH 1% SDS
T1 sequence (P09038 143-288, one chain of several): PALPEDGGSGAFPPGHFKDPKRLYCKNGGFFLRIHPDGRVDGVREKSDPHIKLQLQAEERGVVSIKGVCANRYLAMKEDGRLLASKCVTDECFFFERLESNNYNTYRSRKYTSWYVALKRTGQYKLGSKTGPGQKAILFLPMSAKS
Method: FGFb bindings by bFGF photoaptamer and bFGF native aptamer (GCGAAGGCACACCGAGTTCATAGTATCCCA; SEQ ID NO:2) were compared. Referring to FIG. 3, * denotes PICUP-like cross-linking (the left two columns), while the remaining wells represent non-covalent ligand capture (the right two columns). Samples in plates 1* and 7 were treated with 1N NaOH, 1% SDS to remove the non-covalently bound ligand.
This hypothesis was tested by titrating increasing concentrations of FGFb against the two aptamers and plotting binding curves. Referring to FIG. 4, in the left panel, the two left hand side columns of each array were printed with bFGF photoaptamer, while the two right hand side columns were printed with bFGF native aptamer. The eighteen arrays in the left panel were cross-linked using a PICUP-like protocol, whereas the six arrays in the right panel represent non-covalent binding. All wells were treated with 1N NaOH, 1% SDS to strip the non-covalently bound ligand. The displacement of the bFGF native aptamer binding curve (diamonds) to the right of the bFGF photoaptamer curve (squares) confirmed that the cross-linking avidity of the bFGF native aptamer is lower than its BrdU-modified bFGF photoaptamer analog (FIG. 5).

[2] = target: T1, FGFb (fibroblast growth factor-basic, …); assay: Ru(bpy)3 2+/APS visible-light cross-linking; urea gel and printed aptamer array with anti-FGF ELF detection; complex stable to 1N NaOH 1% SDS when cross-linked
Description: bFGF photoaptamer (GCG AAG GCA CAC CGA GXX CAX AGX AXC CCA, where X=BrdU; SEQ ID NO:1) was mixed with FGFb ligand overnight to achieve maximal aptamer-ligand binding. White light-mediated photolysis of tris-bipyridylruthenium (II) complex was employed to cross-link the aptamer to the ligand in the presence of APS. The solution was then boiled in the presence of urea-SDS to dissociate bound but uncross-linked ligand from the aptamer. The mixture was subsequently applied to a urea slab gel to separate free aptamer from the cross-linked aptamer-ligand complex by electrophoresis. SYBR Gold staining was used to determine the presence of the aptamer, while double-staining with silver stain was used to determine the presence of the ligand. Referring to FIG. 1, the test sample consisted of bFGF photoaptamer and fibroblast growth factor-basic (FGFb) ligand; the control sample consisted of only bFGF photoaptamer. The test and control samples were incubated overnight prior to PICUP (photo-induced cross-linking of unmodified proteins)-like cross-linking. The samples (12 ul/each) were run on a 6% TBE-urea gel. […] Both the test and control samples were subject to denaturing conditions (100° C. for 5 minutes in TBE-urea sample buffer) prior to electrophoresis.
In FIG. 2, FGFb ligand was applied to an array of aptamers and incubated for 48 hours to achieve maximal binding. […]

Binder	binding result [1]	binding result [2]
B1	binds	–
B2	–	binds
